Columns and labels:
[1] = target: cynomolgus T cell receptor (TCRαβ) on primary cynomolgus T cells (cynomolgus); assay: cell-based or functional assay
[2] = target: human T cell receptor (TCRαβ) on primary human T cells (human); assay: cell-based or functional assay
Chain of human T cell receptor (TCRαβ) on primary human T cells (human) (P0DTU3 134-275, chain 1 of 2): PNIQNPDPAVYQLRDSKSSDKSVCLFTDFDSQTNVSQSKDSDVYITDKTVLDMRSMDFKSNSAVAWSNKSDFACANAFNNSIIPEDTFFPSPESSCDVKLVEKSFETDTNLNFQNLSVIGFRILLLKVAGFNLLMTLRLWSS
Chain of human T cell receptor (TCRαβ) on primary human T cells (human) (P01850 other isoform, or with tags, fused parts or gaps, chain 2 of 2, further chain): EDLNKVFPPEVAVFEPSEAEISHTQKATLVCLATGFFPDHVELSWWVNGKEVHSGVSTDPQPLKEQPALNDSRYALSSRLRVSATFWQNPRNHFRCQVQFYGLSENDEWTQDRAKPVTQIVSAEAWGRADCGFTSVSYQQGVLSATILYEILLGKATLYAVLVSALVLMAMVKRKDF

B1: A022600427 (protein)
chain: DVQLVESGGGVVQPGGSLRLSCVASGYVHKINFYGWYRQAPGKEREKVAHISIGDQTDYADSAKGRFTISRDESKNTVYLQMNSLRPEDTAAYYCRALSRIWPYDYWGQGTLVTVSSGGGGSEVQLVESGGGVVQPGGSLRLSCAASGFTFSSFAMTWVRRPPGKGLEWVATITNAGVTSYADSVKGRFTISRDNAKNTLYLQMNSLRPEDTALYICANARRTGPRAPTDIGSYRGQGTLVTVSSGGGGSGGGSEVQLVESGGGVVQPGGSLRLSCAASGSIFRSVFSSSTMEWYRQAPGKKRELVARIAPGEGTYYGALYADSVKGRFTISRDNAKNTVYLQMNSLRPEDTALYYCASGVAWGQGTLVTVSSGGGGSGGGSEVQLVESGGGVVQPGGSLRLSCAASGFTFRSFGMSWVRQAPGKGPEWVSSISGSGSDTLYADSVKGRFTISRDNSKNTLYLQMNSLRPEDTALYYCTIGGSLSRSSQGTLVTVSSA
Question: Which results are given for B1?
Answer: IC50 (M), cynomolgus T cell mediated HuH-7 cell killing, Cynomolgus Donor #1 [1]: 2.3e-08 M; IC50 (M), cynomolgus T cell mediated HuH-7 cell killing, Cynomolgus Donor #2 [1]: 2.5e-10 M; IC50 (M), human T cell mediated HuH-7 cell killing, Human Donor #1 [2]: 3e-10 M; IC50 (M), human T cell mediated HuH-7 cell killing, Human Donor #2 [2]: 1.1e-10 M

B2: A022600462 (protein)
chain: DVQLVESGGGVVQPGGSLRLSCVASGYVHKINFYGWYRQAPGKEREKVAHISIGDQTDYAESAKGRFTISRDESKNTVYLQMNSLRPEDTAAYYCRALSRIYPYDYWGQGTLVTVSSGGGGSEVQLVESGGGVVQPGGSLRLSCAASGFTFSSFAMTWVRRPPGKGLEWVATITNKGVTSYADSVKGRFTISRDNAKNTLYLQMNSLRPEDTALYICANARRTGPRAPTDIGSYRGQGTLVTVSSGGGGSGGGSEVQLVESGGGVVQPGGSLRLSCAASGSIFRSVFSSSTMEWYRQAPGKKRELVARIAPGEGTYYGALYADSVKGRFTISRDNAKNTVYLQMNSLRPEDTALYYCASGVAWGQGTLVTVSSGGGGSGGGSEVQLVESGGGVVQPGGSLRLSCAASGFTFRSFGMSWVRQAPGKGPEWVSSISGSGSDTLYADSVKGRFTISRDNSKNTLYLQMNSLRPEDTALYYCTIGGSLSRSSQGTLVTVSSA
Question: What does the source list for B2?
Answer: IC50 (M), cynomolgus T cell mediated HuH-7 cell killing, Cynomolgus Donor #1 [1]: 3.9e-09 M; IC50 (M), cynomolgus T cell mediated HuH-7 cell killing, Cynomolgus Donor #2 [1]: 2.2e-10 M; IC50 (M), human T cell mediated HuH-7 cell killing, Human Donor #1 [2]: 2.8e-10 M; IC50 (M), human T cell mediated HuH-7 cell killing, Human Donor #2 [2]: 1e-10 M

— patent publication US20240109965A1
